Results from article PMC5931518, “Architecture of the U6 snRNP reveals specific recognition of 3′-end processed U6 snRNA”.
Residue numbers refer to the chain shown, from its start. Blank lines part the entries; values can stand above or below the molecule they belong to.

Columns and labels:
[1] = target: Prp24 (EMSA, wild type);Lsm2-8 mostly wild type (Saccharomyces cerevisiae;Saccharomyces cerevisiae) (UniProt P38203+P57743+P40070+P40089+Q06406+P53905+P47093); experiment: EMSA; conditions: Lsm2-8 titrated onto U6 pre-bound with 20 nM Prp24; FP: 50 mM KCl or as listed 100 mM KCl in both 2x buffers, HEPES (10 mM acid + 10 mM Na salt), 10% glycerol, 1 mM TCEP, tRNA, heparin, BSA, 0.3 nM FAM-RNA …
Sequence of Prp24 (EMSA, wild type);Lsm2-8 mostly wild type (Saccharomyces cerevisiae;Saccharomyces cerevisiae) (P40070 whole entry, looked up, one chain of several): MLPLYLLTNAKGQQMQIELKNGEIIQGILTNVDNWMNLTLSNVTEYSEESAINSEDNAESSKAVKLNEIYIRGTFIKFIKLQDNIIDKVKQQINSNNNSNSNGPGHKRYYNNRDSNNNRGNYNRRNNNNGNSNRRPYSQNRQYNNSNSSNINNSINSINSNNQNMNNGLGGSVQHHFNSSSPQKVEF

[2] = target: Prp24-8Asub;Lsm2-8 mostly wild type (Saccharomyces cerevisiae;Saccharomyces cerevisiae) (UniProt P38203+P57743+P40070+P40089+Q06406+P53905+P47093); experiment: EMSA; conditions: Lsm2-8 titrated onto U6 pre-bound with 20 nM Prp24-8Asub; FP: 50 mM KCl or as listed 100 mM KCl in both 2x buffers, HEPES (10 mM acid + 10 mM Na salt), 10% glycerol, 1 mM TCEP, tRNA, heparin, BSA, 0.3 nM FAM-RNA …
Sequence of Prp24-8Asub;Lsm2-8 mostly wild type (Saccharomyces cerevisiae;Saccharomyces cerevisiae) (P40070 whole entry, looked up, one chain of several): as above

Lsm2-8 Lsm2-K20A = target: T1, Lsm2-8 Lsm2-K20A (Saccharomyces cerevisiae, UniProt P38203;P57743;P40070;P40089;Q06406;P53905;P47093 …, K20A); experiment: fluorescence polarization; FP: 50 mM KCl or as listed 100 mM KCl in both 2x buffers, HEPES (10 mM acid + 10 mM Na salt), 10% glycerol, 1 mM TCEP, tRNA, heparin, BSA, 0.3 nM FAM-RNA; EMSA: 100 mM KCl, 20% sucrose, 20 mM bis-tris/10 mM HCl pH ~6.5, 1 mM EDTA, 1 mM TCEP, 0.01% Triton X-100, tRNA, heparin, BSA, room temperature, gel at 4 C; conditions: protein: recombinant; tags: as P1; copies: 1;1;1;1;1;1;1; label: 5'-FAM; single strand
T1 sequence 1: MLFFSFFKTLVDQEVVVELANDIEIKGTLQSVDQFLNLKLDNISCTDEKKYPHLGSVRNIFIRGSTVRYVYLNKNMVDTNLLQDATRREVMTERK
T1 sequence 2: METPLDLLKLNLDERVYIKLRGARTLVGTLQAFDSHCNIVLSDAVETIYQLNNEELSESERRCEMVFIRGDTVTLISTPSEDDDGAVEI
T1 sequence 3: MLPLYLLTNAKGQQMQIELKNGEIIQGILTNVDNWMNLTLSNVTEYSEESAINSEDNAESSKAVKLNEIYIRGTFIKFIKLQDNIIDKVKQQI
T1 sequence 4: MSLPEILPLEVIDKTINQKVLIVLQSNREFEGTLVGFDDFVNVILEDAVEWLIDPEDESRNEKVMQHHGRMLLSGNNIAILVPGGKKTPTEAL
T1 sequence 5: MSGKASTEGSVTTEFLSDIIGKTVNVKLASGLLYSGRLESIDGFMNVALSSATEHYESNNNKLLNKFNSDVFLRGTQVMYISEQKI
T1 sequence 6: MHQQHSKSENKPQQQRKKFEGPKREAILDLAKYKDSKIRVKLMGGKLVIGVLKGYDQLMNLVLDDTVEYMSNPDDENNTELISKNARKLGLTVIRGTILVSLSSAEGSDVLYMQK
T1 sequence 7: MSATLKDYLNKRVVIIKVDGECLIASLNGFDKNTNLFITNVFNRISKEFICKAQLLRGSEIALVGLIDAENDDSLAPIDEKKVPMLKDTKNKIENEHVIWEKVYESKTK

Lsm2-8 Lsm2-K20E = target: T2, Lsm2-8 Lsm2-K20E (Saccharomyces cerevisiae, UniProt P38203;P57743;P40070;P40089;Q06406;P53905;P47093 …, K20E); experiment: as above; conditions: protein: recombinant; tags: as P1; copies: 1;1;1;1;1;1;1; label: 5'-FAM; single strand
T2 sequence 1: T1 sequence 1 with A20E
T2 sequence 2: T1 sequence 2
T2 sequence 3: T1 sequence 3
T2 sequence 4: T1 sequence 4
T2 sequence 5: T1 sequence 5
T2 sequence 6: T1 sequence 6
T2 sequence 7: T1 sequence 7

Lsm2-8 Lsm3-R21E = target: T3, Lsm2-8 Lsm3-R21E (Saccharomyces cerevisiae, UniProt P38203;P57743;P40070;P40089;Q06406;P53905;P47093 …, R21E); experiment: as above; conditions: protein: recombinant; tags: as P1; copies: 1;1;1;1;1;1;1; label: 5'-FAM; single strand
T3 sequence 1: T1 sequence 1 with A20K
T3 sequence 2: T1 sequence 2 with R21E
T3 sequence 3: T1 sequence 3
T3 sequence 4: T1 sequence 4
T3 sequence 5: T1 sequence 5
T3 sequence 6: T1 sequence 6
T3 sequence 7: T1 sequence 7

Lsm2-8 Lsm3-R21A = target: T4, Lsm2-8 Lsm3-R21A (Saccharomyces cerevisiae, UniProt P38203;P57743;P40070;P40089;Q06406;P53905;P47093 …, R21A); experiment: as above; conditions: protein: recombinant; tags: as P1; copies: 1;1;1;1;1;1;1; label: 5'-FAM; single strand
T4 sequence 1: T1 sequence 1 with A20K
T4 sequence 2: T1 sequence 2 with R21A
T4 sequence 3: T1 sequence 3
T4 sequence 4: T1 sequence 4
T4 sequence 5: T1 sequence 5
T4 sequence 6: T1 sequence 6
T4 sequence 7: T1 sequence 7

Lsm2-8 construct 2 (WT) = target: T5, Lsm2-8 construct 2 (WT) (Saccharomyces cerevisiae, UniProt P38203;P57743;P40070;P40089;Q06406;P53905;P47093 …); experiment: as above; conditions: protein: recombinant; tags: Lsm8 C-terminal His6 (non-cleavable); Lsm3 C-terminal StrepII (non-cleavable); MBP on Lsm6 (TEV-labile); copies: 1;1;1;1;1;1;1; label: 5'-FAM; single strand
T5 sequence 1: T1 sequence 1 with A20K
T5 sequence 2: T1 sequence 2
T5 sequence 3: T1 sequence 3
T5 sequence 4: T1 sequence 4
T5 sequence 5: T1 sequence 5
T5 sequence 6: T1 sequence 6
T5 sequence 7: T1 sequence 7

Lsm2-8 Lsm8-delC = target: T6, Lsm2-8 Lsm8-delC (Saccharomyces cerevisiae, UniProt P38203;P57743;P40070;P40089;Q06406;P53905;P47093 …); experiment: as above; conditions: protein: recombinant; tags: as P1; copies: 1;1;1;1;1;1;1; label: 5'-FAM; single strand
T6 sequence 1: T1 sequence 1 with A20K
T6 sequence 2: T1 sequence 2
T6 sequence 3: T1 sequence 3
T6 sequence 4: T1 sequence 4
T6 sequence 5: T1 sequence 5
T6 sequence 6: T1 sequence 6
T6 sequence 7: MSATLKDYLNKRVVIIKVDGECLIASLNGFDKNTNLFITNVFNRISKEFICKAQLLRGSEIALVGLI

[3] = target: Prp24-8Asub (eight RRM4 residues at the Lsm2 interface substituted with alanine) (S. cerevisiae) (UniProt P49960)
[4] = target: T7, wild-type Prp24 for electrophoretic mobility shift assays (TEV-labile N-terminal polyhistidine tag removed) (S. cerevisiae, UniProt P49960 1-444); experiment: EMSA; Prp24 pre-bound to U6 RNA (U6/Prp24 complex)
T7 chain: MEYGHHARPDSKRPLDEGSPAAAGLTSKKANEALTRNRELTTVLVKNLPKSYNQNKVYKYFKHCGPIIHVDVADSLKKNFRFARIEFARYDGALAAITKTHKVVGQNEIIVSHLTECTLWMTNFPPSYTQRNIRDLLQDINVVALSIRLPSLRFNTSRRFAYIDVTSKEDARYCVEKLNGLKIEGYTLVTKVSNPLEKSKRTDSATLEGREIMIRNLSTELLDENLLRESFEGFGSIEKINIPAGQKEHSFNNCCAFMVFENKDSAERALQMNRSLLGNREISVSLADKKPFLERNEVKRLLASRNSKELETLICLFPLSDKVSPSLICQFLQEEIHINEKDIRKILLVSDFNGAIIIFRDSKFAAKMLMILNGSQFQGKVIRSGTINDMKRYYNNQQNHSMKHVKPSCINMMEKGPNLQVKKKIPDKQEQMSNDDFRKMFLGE

[5] = target: T8, Prp24-8Asub (eight RRM4 residues at the Lsm2 interface substituted with alanine) (S. cerevisiae, UniProt P49960 1-444, D361A | S362A | K363A | K367A | L369A | M370A | I371A | N373A); experiment: EMSA; Prp24-8Asub pre-bound to U6 RNA (U6/Prp24 complex)
T8 sequence: T7 chain with D361A, S362A, K363A, K367A, L369A, M370A, I371A, N373A

[6] = target: Prp24-8Asub (eight RRM4 residues at the Lsm2 interface substituted with alanine) (S. cerevisiae) (UniProt P49960); experiment: native gel or EMSA; different amounts of Lsm2–8 added to 0.5 nM Cy3-U6 1–112 pre-incubated 20 min with 20 nM Prp24; 100 mM KCl, bis-tris pH ~6.5, room temperature; 6% native polyacrylamide gel at 4 °C; Hill fit, average of three technical replicates

Molecule: Cy3-U6 1-112
Kd [1]: 2.8 nM
Kd [2]: 5.7 nM

B1: U6 104-113 3' phosphate (ssRNA)
RNA: UUUCGUUUUU
modifications: 3' phosphate
Kd (Lsm2-8 Lsm2-K20A): 841 ± 89 nM
Kd (Lsm2-8 Lsm2-K20E): 2320 ± 450 nM
Kd (Lsm2-8 Lsm3-R21E): 1150 ± 190 nM
Kd (Lsm2-8 Lsm3-R21A): 123 ± 12 nM
Kd (Lsm2-8 construct 2 (WT)): 6.13 ± 0.87 nM
Kd (Lsm2-8 Lsm8-delC): 502 ± 47 nM

B2: U6 104-113 2',3'-cis diol (ssRNA)
RNA: UUUCGUUUUU
modifications: none (3' phosphate removed with CIP)
Kd (Lsm2-8 Lsm2-K20A): 522 ± 48 nM
Kd (Lsm2-8 Lsm2-K20E): 1870 ± 370 nM
Kd (Lsm2-8 Lsm3-R21E): 195 ± 27 nM
Kd (Lsm2-8 Lsm3-R21A): 40.8 ± 3.3 nM
Kd (Lsm2-8 construct 2 (WT)): 37.4 ± 4.5 nM
Kd (Lsm2-8 Lsm8-delC): 277 ± 32 nM

rate of in vitro annealing of U4 and U6 with Prp24-8Asub in place of wild-type Prp24 (50 nM Prp24/50 nM Lsm2–8) [3]: 2 fold slower
Kd [4]: 2.8 nM
Kd [5]: 5.7 nM
fold reduction of affinity against wild-type Prp24 (U6•Prp24 complex) [6]: 2 fold
B3: Lsm2–8 heteroheptameric ring, "mostly wild type" construct (complex)
chain 1: MGSMLFFSFFKTLVDQEVVVELKNDIEIKGTLQSVDQFLNLKLDNISCTDEKKYPHLGSVRNIFIRGSTVRYVYLNKNMVDTNLLQDATRREVMTERK
chain 2: MGSMETPLDLLKLNLDERVYIKLRGARTLVGTLQAFDSHCNIVLSDAVETIYQLNNEELSESERRCEMVFIRGDTVTLISTPSEDDDGAVEI
chain 3: MGSMLPLYLLTNAKGQQMQIELKNGEIIQGILTNVDNWMNLTLSNVTEYSEESAINSEDNAESSKAVKLNEIYIRGTFIKFIKLQDNIIDKVKQQI
chain 4: MGSMSLPEILPLEVIDKTINQKVLIVLQSNREFEGTLVGFDDFVNVILEDAVEWLIDPEDESRNEKVMQHHGRMLLSGNNIAILVPGGKKTPTEAL
chain 5: GSMSGKASTEGSVTTEFLSDIIGKTVNVKLASGLLYSGRLESIDGFMNVALSSATEHYESNNNKLLNKFNSDVFLRGTQVMYISEQKI
chain 6: MGSMHQQHSKSENKPQQQRKKFEGPKREAILDLAKYKDSKIRVKLMGGKLVIGVLKGYDQLMNLVLDDTVEYMSNPDDENNTELISKNARKLGLTVIRGTILVSLSSAEGSDVLYMQK
chain 7: GSMSATLKDYLNKRVVIIKVDGECLIASLNGFDKNTNLFITNVFNRISKEFICKAQLLRGSEIALVGLIDAENDDSLAPIDEKKVPMLKDTKNKIENEHVIWEKVYESKTK
